The text below walks through data of US20260176324A1 (published 2026).

The target in assay [1] is T1, KRAS G12V peptide on HLA-A*11:01 (human).
T1 peptide: VVGAVGVGK
The experiment in a line: cytokine release.
Experimental: (§1) The affinity assay of TCR-T cells was performed as follows. Antigen-presenting cells (HLA-A*11:01 overexpressing T2 cells or K562 cells) were collected, and counted. […] 1 mL of cell suspension was added to each well of a 24-well plate, respectively. […] The cells were incubated in an incubator (37° C., 5% CO₂) for 2 h. After incubation, the antigen-presenting cells were collected and washed, and 100 μl of the antigen-presenting cells at 1E6/mL were added to corresponding wells of 96-well plates. […] Various nwTCR-T cells were co-cultured with the antigen-presenting cells (37° C., 5% CO₂) for 16 h respectively.

For assay [2], the target named is T2, KRAS G12V peptide on HLA-A*11:01 (human).
T2 peptide: VVVGAVGVGK
The experiment in a line: multimer staining.

The target in assay [3] is T1, KRAS G12V peptide on HLA-A*11:01. The experiment in a line: multimer staining.
For assay [4], the target named is T2, KRAS G12V peptide on HLA-A*11:01. The experiment in a line: cytokine release.
Experimental: as §1

B1: nwTCR-0125 (TCR, V domains shown)
Valpha: AQKVTQAQTEISVVEKEDVTLDCVYETRDTTYYLFWYKQPPSGELVFLIRRNSFDEQNEISGRYSWNFQKSTSSFNFTITASQVVDSAVYFCARDQTGANNLFFGTGTRLTVIP
Vbeta: DVKVTQSSRYLVKRTGEKVFLECVQDMDHENMFWYRQDPGLGLRLIYFSYDVKMKEKGDIPEGYSVSREKKERFSLILESASTNQTSMYLCASSPPHLASGASTDTQYFGPGTRLTVL
Consider B1, for which the binding result in assay [1] and in assay [2] was “recognises” each time.

B2: nwTCR-2310 (TCR, V domains shown)
Valpha: SQQGEEDPQALSIQEGENATMNCSYKTSINNLQWYRQNSGRGLVHLILIRSNEREKHSGRLRVTLDTSKKSSSLLITASRAADTASYFCATDGGGGADGLTFGKGTHLIIQP
Vbeta: DSGVTQTPKHLITATGQRVTLRCSPRSGDLSVYWYQQSLDQGLQFLIQYYNGEERAKGNILERFSAQQFPDLHSELNLSSLELGDSALYFCASSLHRDSDTEAFFGQGTRLTVV
For the molecule B2, in assay [3], the binding result was “recognises”.

B3: nwTCR-2390 (TCR, V domains shown)
Valpha: SQQGEEDPQALSIQEGENATMNCSYKTSINNLQWYRQNSGRGLVHLILIRSNEREKHSGRLRVTLDTSKKSSSLLITASRAADTASYFCATDSGGGADGLTFGKGTHLIIQP
Vbeta: DSGVTQTPKHLITATGQRVTLRCSPRSGDLSVYWYQQSLDQGLQFLIQYYNGEERAKGNILERFSAQQFPDLHSELNLSSLELGDSALYFCASSHGRDSTDTQYFGPGTRLTVL
Consider B3, for which the binding result in assay [3] is given as “recognises”.

B4: nwTCR-2308 (TCR, V domains shown)
Valpha: KDQVFQPSTVASSEGAVVEIFCNHSVSNAYNFFWYLHFPGCAPRLLVKGSKPSQQGRYNMTYERFSSSLLILQVREADAAVYYCAGSNDYKLSFGAGTTVTVRA
Vbeta: EAQVTQNPRYLITVTGKKLTVTCSQNMNHEYMSWYRQDPGLGLRQIYYSMNVEVTDKGDVPEGYKVSRKEKRNFPLILESPSPNQTSLYFCASSTSPYNEQFFGPGTRLTVL
As to B4, in assay [2], the binding result is “recognises”.

B5: nwTCR-0126 (TCR, V domains shown)
Valpha: AQKVTQAQTEISVVEKEDVTLDCVYETRDTTYYLFWYKQPPSGELVFLIRRNSFDEQNEISGRYSWNFQKSTSSFNFTITASQVVDSAVYFCALSDPRYSGGGADGLTFGKGTHLIIQP
Vbeta: DSGVTQTPKHLITATGQRVTLRCSPRSGDLSVYWYQQSLDQGLQFLIQYYNGEERAKGNILERFSAQQFPDLHSELNLSSLELGDSALYFCASSPRGGDSILDTQYFGPGTRLTVL
For the molecule B5, the binding result in assay [1] and in assay [2] was “recognises” each time.

B6: nwTCR-1708 (TCR, V domains shown)
Valpha: QKEVEQNSGPLSVPEGAIASLNCTYSDRGSQSFFWYRQYSGKSPELIMFIYSNGDKEDGRFTAQLNKASQYVSLLIRDSQPSDSATYLCAVNMPGNMLTFGGGTRLMVKP
Vbeta: DARVTQTPRDKVTEMGQEVTMRCQPILGHNTVFWYRQTMMQGLELLAYFRNRAPLDDSGMPKDRFSAEMPDATLATLKIQPSEPRDSAVYFCASGPEGLDNEQFFGPGTRLTVL
Take B6: the binding result in assay [1] and in assay [2] was “recognises” in each case.

B7: nwTCR-0127 (TCR, V domains shown)
Valpha: DQQVKQNSPSLSVQEGRISILNCDYTNSMFDYFLWYKKYPAEGPTFLISISSIKDKNEDGRFTVFLNKSAKHLSLHIVPSQPGDSAVYFCAGYQGGYKLSFGAGTTVTVRA
Vbeta: EAQVTQNPRYLITVTGKKLTVTCSQNMNHEYMSWYRQDPGLGLRQIYYSMNVEVTDKGDVPEGYKVSRKEKRNFPLILESPSPNQTSLYFCASSTRDRDNEQFFGPGTRLTVL
Take B7: the binding result in assay [1] and in assay [2] was “recognises” in each case.

B8: nwTCR-2629 (TCR, V domains shown)
Valpha: AQSVTQLDSHVSVSEGTPVLLRCNYSSSYSPSLFWYVQHPNKGLQLLLKYTSAATLVKGINGFEAEFKKSETSFHLTKPSAHMSDAAEYFCVVSVWTDKLIFGTGTRLQVFP
Vbeta: GAVVSQHPSWVICKSGTSVKIECRSLDFQATTMFWYRQFPKQSLMLMATSNEGSKATYEQGVEKDKFLINHASLTLSTLTVTSAHPEDSSFYICSANRDFGIYEQYFGPGTRLTVT
As to B8, the binding result in assay [3] was “recognises”.

B9: nwTCR-2392 (TCR, V domains shown)
Valpha: DQQVKQNSPSLSVQEGRISILNCDYTNSMFDYFLWYKKYPAEGPTFLISISSIKDKNEDGRFTVFLNKSAKHLSLHIVPSQPGDSAVYFCAASYAGSARQLTFGSGTQLTVLP
Vbeta: GAGVSQSPSNKVTEKGKDVELRCDPISGHTALYWYRQRLGQGLEFLIYFQGNSAPDKSGLPSDRFSAERTGESVSTLTIQRTQQEDSAVYLCASSPGGNYGYTFGSGTRLTVV
In the case of B9, the binding result in assay [3] is “recognises”.

B10: nwTCR-2563 (TCR, V domains shown)
Valpha: SQQGEEDPQALSIQEGENATMNCSYKTSINNLQWYRQNSGRGLVHLILIRSNEREKHSGRLRVTLDTSKKSSSLLITASRAADTASYFCATDRTGGYNKLIFGAGTRLAVHP
Vbeta: ETGVTQSPTHLIKTRGQQVTLRCSSQSGHNTVSWYQQALGQGPQFIFQYYREEENGRGNFPPRFSGLQFPNYSSELNVNALELDDSALYLCASSLQTGDEQYFGPGTRLTVT
B10: the binding result in assay [1] and in assay [2] was “recognises” in each case.

B11: nwTCR-2241 (TCR, V domains shown)
Valpha: ELKVEQNPLFLSMQEGKNYTIYCNYSTTSDRLYWYRQDPGKSLESLFVLLSNGAVKQEGRLMASLDTKARLSTLHITAAVHDLSATYFCAVDKAAGNKLTFGGGTRVLVKP
Vbeta: GEEVAQTPKHLVRGEGQKAKLYCAPIKGHSYVFWYQQVLKNEFKFLISFQNENVFDETGMPKERFSAKCLPNSPCSLEIQATKLEDSAVYFCASSPHHRYEQYFGPGTRLTVT
B11: the binding result in assay [2] is “recognises”.

B12: nwTCR-2561 (TCR, V domains shown)
Valpha: GNSVTQMEGPVTLSEEAFLTINCTYTATGYPSLFWYVQYPGEGLQLLLKATKADDKGSNKGFEATYRKETTSFHLEKGSVQVSDSAVYFCALPAGGGADGLTFGKGTHLIIQP
Vbeta: GAGVSQSPSNKVTEKGKDVELRCDPISGHTALYWYRQSLGQGLEFLIYFQGNSAPDKSGLPSDRFSAERTGGSVSTLTIQRTQQEDSAVYLCASSFGTSGDQYEQYFGPGTRLTVT
For the molecule B12, the binding result in assay [3] is “recognises”.

B13: nwTCR-1862 (TCR, V domains shown)
Valpha: GEDVEQSLFLSVREGDSSVINCTYTDSSSTYLYWYKQEPGAGLQLLTYIFSNMDMKQDQRLTVLLNKKDKHLSLRIADTQTGDSAIYFCAERGTDSWGKLQFGAGTQVVVTP
Vbeta: GAVVSQHPSWVICKSGTSVKIECRSLDFQATTMFWYRQFPKQSLMLMATSNEGSKATYEQGVEKDKFLINHASLTLSTLTVTSAHPEDSSFYICSARFANYYEQYFGPGTRLTVT
For the molecule B13, the binding result in assay [2] is listed as “recognises”.

B14: nwTCR-2595 (TCR, V domains shown)
Valpha: ILNVEQSPQSLHVQEGDSTNFTCSFPSSNFYALHWYRWETAKSPEALFVMTLNGDEKKKGRISATLNTKEGYSYLYIKGSQPEDSATYLCAFNNQGGKLIFGQGTELSVKP
Vbeta: EAQVTQNPRYLITVTGKKLTVTCSQNMNHEYMSWYRQDPGLGLRQIYYSMNVEVTDKGDVPEGYKVSRKEKRNFPLILESPSPNQTSLYFCASSSGTGGGAEAFFGQGTRLTVV
Regarding B14, the binding result in assay [4] and in assay [3] was “recognises” throughout.

B15: nwTCR-2424 (TCR, V domains shown)
Valpha: QKEVEQNSGPLSVPEGAIASLNCTYSDRGSQSFFWYRQYSGKSPELIMFIYSNGDKEDGRFTAQLNKASQYVSLLIRDSQPSDSATYLCARKKTSYDKVIFGPGTSLSVIP
Vbeta: DSGVTQTPKHLITATGQRVTLRCSPRSGDLSVYWYQQSLDQGLQFLIQYYNGEERAKGNILERFSAQQFPDLHSELNLSSLELGDSALYFCASSLGDSEQFFGPGTRLTVL
For the molecule B15, in assay [3], the binding result is given as “recognises”.
